Target: T1, TER94 (endogenous, the fly VCP homolog) (Drosophila (endogenous in flies), UniProt Q7KN62 1-801)
T1 construct: TER94, the Drosophila homolog of VCP, endogenous, detected with anti-VCP; also called TER94^WT; source: endogenous, whole fly lysate
Assay: co-IP; anti-VCP on protein A-agarose; lysates of wild-type flies untreated or kept at 0°C for two hours and recovered for four hours at 25°C; blot with anti-VCP and anti-Derlin-1
Conditions: partners not purified

T1 sequence (Q7KN62 whole entry): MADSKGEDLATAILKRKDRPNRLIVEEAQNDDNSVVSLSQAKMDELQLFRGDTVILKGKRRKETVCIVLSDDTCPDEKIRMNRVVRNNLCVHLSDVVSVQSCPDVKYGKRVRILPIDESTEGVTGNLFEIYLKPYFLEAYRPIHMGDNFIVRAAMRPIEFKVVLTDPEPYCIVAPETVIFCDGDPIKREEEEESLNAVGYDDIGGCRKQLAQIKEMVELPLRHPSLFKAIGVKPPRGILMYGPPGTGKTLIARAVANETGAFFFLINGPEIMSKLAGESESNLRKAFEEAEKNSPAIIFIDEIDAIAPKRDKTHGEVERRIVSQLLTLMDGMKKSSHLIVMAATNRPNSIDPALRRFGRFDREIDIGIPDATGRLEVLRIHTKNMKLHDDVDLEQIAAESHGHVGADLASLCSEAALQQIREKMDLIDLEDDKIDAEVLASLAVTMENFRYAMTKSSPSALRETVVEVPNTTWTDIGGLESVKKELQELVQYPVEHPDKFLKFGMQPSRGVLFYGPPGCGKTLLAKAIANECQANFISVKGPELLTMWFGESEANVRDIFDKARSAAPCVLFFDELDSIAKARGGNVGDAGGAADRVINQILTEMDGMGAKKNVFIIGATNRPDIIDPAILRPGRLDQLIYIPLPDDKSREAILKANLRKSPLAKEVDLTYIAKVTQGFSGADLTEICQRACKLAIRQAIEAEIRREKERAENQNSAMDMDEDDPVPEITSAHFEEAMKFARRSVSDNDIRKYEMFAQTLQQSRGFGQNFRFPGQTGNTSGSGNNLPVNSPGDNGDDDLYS

B1: Derlin-1 (endogenous, fly) (natural protein, Drosophila (endogenous in flies), UniProt Q9VQ57 1-245, looked up)
chain: MDAGVWYRSLPRFTRYWLTATVVLSMLCRFDVIPLHWLHLDRSAVFSKLQLWRCMTSLFVFPISSNTAFHFLINCFFIVQYSSKLEKDQYSRSPADYLYLLIVSAVLANIGGMIFNVYFLMDTLVLAITYIWCQLNKDVTVSFWFGTRFKAMYLPWVLAAFEFIFHFSLASLVGIFVGHVYYFFKFQYSQDLGGTPLLETPQFLKRLVPDVSGGFGGFGLPPESRAPPRQATESPWGRGMTLGRN
notes: Derlin-1, Drosophila, endogenous protein of about 27 kD (predicted 28.25 kD); also called endogenous Derlin-1; source: endogenous, whole fly lysate
B1 was tested, and the “fold increase of the level of Derlin-1/TER94 complexes after cold treatment against untreated (normalised to TER94)” value was 4.9 ± 0.98 fold.
